Assay results taken from patent US20210087291A1 (Hoffmann-La Roche, published 2021).
Where two headings read alike, the source gives them in different places.

Legend:
[1] = target: T1, human FolR3 ECD-AcTev-Fcknob-Avi tag + Fc hole, biotinylated monomeric Fc fusion (human, UniProt P0DOX5 223-449 = IgG part); assay: SPR, IgG single injection
T1 construct: also called huFolR3; FolR3-Fc

[2] = target: T2, human FolR2 ECD-AcTev-Fcknob-Avi tag + Fc hole, biotinylated monomeric Fc fusion (human, UniProt P0DOX5 223-449 = IgG part); assay: SPR, IgG single injection
T2 construct: also called huFolR2; FolR2-Fc

[3] = target: T3, murine FolR1 ECD-AcTev-Fcknob-Avitag + Fc hole, biotinylated monomeric Fc fusion (murine, UniProt P0DOX5 223-449 = IgG part); assay: SPR, IgG single injection
T3 construct: also called muFolR1; murine FolR1-Fc

[4] = target: T4, cynomolgus FolR1 on transiently transfected HEK cells (cynomolgus, UniProt P15328 25-234 (human entry)); assay: flow cytometry on HEK cells transiently transfected with cyno FolR1, anti-human secondary antibody
T4 construct: also called cyno FolR1; cyFoLR1
Excerpt: Cross-reactivity of the FolR1 antibodies to cyno FolR1 was addressed on HEK cells transiently transfected with cyFolR1 by flow cytometry. The antibodies were detected with a fluorescently labeled anti-human secondary antibody.
In parallel cross-reactivity of the FolR1 clones to cyno FolR1 was addressed by performing binding studies to HEK cells transiently transfected with cyno FolR1.

human FolR1 on cells [5] = target: T5, human FolR1 on cells (human, UniProt P15328 25-234); assay: flow cytometry on HeLa cells (human FolR1), fluorescently labeled anti-human secondary antibody
T5 construct: also called FolR1 on HeLa, SKOV3, HT-29 tumor cells; HEK cells transfected with human FolR1
Description: (§1) Binding of newly generated FolR1 binders to FolR1 expressed on HeLa cells were determined by flow cytometry. Bound antibodies were detected with a fluorescently labeled anti-human secondary antibody.
(§2) The identified binders were converted into a human IgG1 format and binding to FolR1 high expressing HeLa cells was addressed.

[6] = target: T6, human FolR2 on transiently transfected HEK cells (human, UniProt P14207 17-230); assay: flow cytometry on HEK cells transiently transfected with human FolR2, anti-human secondary antibody; concentration not given
human TIM-3 on cells [7] = target: T7, human TIM-3 on cells (human, UniProt Q8TDQ0 22-301); assay: cell ELISA, CHO-K1 expressing human Tim3
T7 construct: also called CHO-Tim3; rec CHOK1 cells expressing huTIM-3
Description: Then the reaction was stopped by addition of 25 μl/well 1N HCL-solution.

monomeric human Tim3-ECD [8] = target: T8, monomeric human Tim3-ECD (human, UniProt Q8TDQ0 22-202); assay: SPR Biacore, antibody captured by anti-mouse IgG
T8 construct: also called huTim3
Description: (§3) Therefore, an anti-mouse IgG was immobilized by amine coupling to the surface of a (Biacore) CM5 sensor chip. The samples were then captured and hu/cy Tim3-ECD was bound to them. The sensor chip surface was regenerated after each analysis cycle. The equilibrium constant KD was finally gained by fitting the data to a 1:1 langmuir interaction model.
(§4) Flow cell temperature was set to 25° C. and sample compartment temperature to 12° C. The system was primed with running buffer. The samples were injected for 30 seconds with a concentration of 200 μg/ml and bound to the spots 1 and 5 of each flow cell, allowing the measurement of eight samples in parallel. Then a complete set of different (monomeric cyno, monomeric human and huFc fused dimeric human Tim3-ECD) concentrations (s. Table X) was injected over each sample for 240 s followed by a dissociation time of 30/1800 s (s. Table 1). Each analysis cycle (sample capture, spot 1 and 5—Tim3 ECD injection) was then regenerated with a 30 seconds long injection of Glycine-HCl pH 1.7. The flow rate was set to 30 μl/min for the whole run. Finally, the double referenced data was fitted to a 1:1 langmuir interaction model with the Biacore B4000 Evaluation Software.

[9] = target: T9, huFc fused dimeric human Tim3-ECD (human, UniProt Q8TDQ0 22-202); assay: SPR Biacore, antibody captured by anti-mouse IgG
T9 construct: also called huTim3Fc; bivalent Tim3
Description: as §3, §4

[10] = target: T10, cynomolgus TIM-3 on isolated cyno CD14+ monocytes (cynomolgus); assay: flow cytometry, cyno CD14+ monocytes cyno2
T10 construct: whole, on cells

monomeric human Tim3-ECD [11] = target: T8, monomeric human Tim3-ECD; assay: SPR Biacore, monovalent Tim3
Description: as §3, §4

[12] = target: T10, cynomolgus TIM-3 on isolated cyno CD14+ …; assay: flow cytometry, cyno CD14+ monocytes cyno1
Excerpt: CD14+ Monocytes were isolated from cynomolgus monkey anticoagulated peripheral blood (Covance) by density gradient centrifugation using Ficoll-Paque (GE Healthcare) (see General Protocols in the User Manuals or visit www.miltenyibiotec.com/protocols) and subsequent positive selection via NHP CD14 MicroBeads. First the CD14+ cells are magnetically labeled with CD14 MicroBeads. Then the cell suspension is loaded onto a MACS® Column which is placed in the magnetic field of a MACS Separator. The magnetically labeled CD14+ cells are retained in the column. The unlabeled cells run through, this cell fraction is depleted of CD14+ cells. After removal of the column from the magnetic field, the magnetically retained CD14+ cells can be eluted as the positively selected cell fraction. After centrifugation at 200×g for 10 min at room temperature the monocytes were harvested and used directly in binding assay or resuspended in freezing medium (10% DMSO, 90% FCS) at 1.0E+07 cells/ml and stored in liquid nitrogen.
1×10⁵ CD14+ isolated cyno monocytes (50 μl/well) were put into 98 well-v bottom MTP in fresh culture medium and incubated with Redimune® NF Liquid for 15 min at RT to block unspecific binding. Than 50 μl/well of Alexa488 labeled anti-TIM3 (10 μg/ml in cell culture medium) were added and incubated for 1 h at 4° C. After washing and centrifugation MFI signals of stained cells were analyzed by BD Biosciences FACSCanto flow cytometer.

[13] = target: T10, cynomolgus TIM-3 on isolated cyno CD14+ …; assay: flow cytometry, cyno CD14+ monocytes cyno3
Tim3-ECD-His-Biotin = target: T11, Tim3-ECD-His-Biotin (human, UniProt Q8TDQ0 22-202); assay: ELISA on Tim3-ECD-His-Biotin
T11 construct: also called human Tim3 (ELISA); Biochem Human
Description: After washing (3×90 μl/well with PBST-buffer) 25 μl aTim3 samples or diluted (1:2 steps) reference antibody aTim3 F38-2E2 (Biolegend) was added and incubated 1 h at RT. After washing (3×90 μl/well with PBST-buffer) 25 μl/well sheep-anti-mouse-POD (GE NA9310V) was added in 1:9000 dilution and incubated at RT for 1 h while shaking at 400 rpm rotation. After washing (4×90 μl/well with PBST-buffer) 25 μl/well TMB substrate (Calbiochem, #CL07) was added and incubated until OD 1.5-2.5. Then the reaction was stopped by addition of 25 μl/well 1N HCL-solution.

human TIM-3 on cells [14] = target: T7, human TIM-3 on cells; assay: flow cytometry, human CD14+ monocytes donor1
Excerpt: (§5) CD14+ Monocytes were isolated from anticoagulated peripheral blood of healthy donors by density gradient centrifugation using Ficoll-Paque (GE Healthcare) (see General Protocols in the User Manuals or visit www.miltenyibiotec.com/protocols) and subsequent positive selection via CD14 MicroBeads. First the CD14+ cells are magnetically labeled with CD14 MicroBeads. Then the cell suspension is loaded onto a MACS® Column which is placed in the magnetic field of a MACS Separator. The magnetically labeled CD14+ cells are retained in the column. The unlabeled cells run through, this cell fraction is depleted of CD14+ cells. After removal of the column from the magnetic field, the magnetically retained CD14+ cells can be eluted as the positively selected cell fraction. After centrifugation at 200×g for 10 min at room temperature the monocytes were harvested and used directly in binding assay or resuspended in freezing medium (10% DMSO, 90% FCS) at 1.0E+07 cells/ml and stored in liquid nitrogen.
(§6) 1×10⁵ CD14+ isolated human monocytes (50 μl/well) were put into 98 well-v bottom MTP in fresh culture medium and incubated with Redimune® NF Liquid for 15 min at RT to block unspecific binding. […] After washing and centrifugation MFI signals of stained cells were analyzed by BD Biosciences FACSCanto flow cytometer.

human TIM-3 on cells [15] = target: T7, human TIM-3 on cells; assay: flow cytometry, human CD14+ monocytes donor2
Excerpt: as §5, §6

human TIM-3 on cells [16] = target: T7, human TIM-3 on cells; assay: cell-based or functional assay
human TIM-3 on cells [17] = target: T7, human TIM-3 on cells; assay: cell-based or functional assay; remark: listed apart in the source
[18] = target: T9, huFc fused dimeric human Tim3-ECD; assay: SPR Biacore, bivalent Tim3
Description: as §3, §4

human TIM-3 on cells [19] = target: T7, human TIM-3 on cells; assay: flow cytometry, human CD14+ monocytes donor3
Excerpt: as §5, §6

[20] = target: T6, human FolR2 on transiently transfected …; assay: flow cytometry on HEK cells transiently transfected with human FolR2, anti-human secondary antibody; concentration not given; remark: listed apart in the source
human FolR1 on cells [21] = target: T5, human FolR1 on cells; assay: flow cytometry on HeLa cells (human FolR1), fluorescently labeled anti-human secondary antibody; remark: listed apart in the source
Description: as §1, §2

human FolR1 on cells [22] = target: T5, human FolR1 on cells; assay: flow cytometry on HEK cells transiently transfected with human FolR1, anti-human secondary antibody; concentration not given
[23] = target: T12, cynomolgus FolR1 ECD-AcTev-Fcknob-Avi tag + Fc hole, biotinylated monomeric Fc fusion (cynomolgus, UniProt P0DOX5 223-449 = IgG part); assay: SPR, IgG single injection
T12 construct: also called cyFolR1; cyno FolR1-Fc

[24] = target: T13, human FolR1 ECD-AcTev-Fcknob-Avi tag + Fc hole, biotinylated monomeric Fc fusion (human, UniProt P0DOX5 223-449 = IgG part); assay: SPR, IgG single injection
T13 construct: also called huFolR1; huFolR1-Fc

human FolR1 on cells [25] = target: T5, human FolR1 on cells; assay: flow cytometry on HeLa cells (human FolR1), fluorescently labeled anti-human secondary antibody; remark: listed apart in the source
Description: as §1, §2

[26] = target: T12, cynomolgus FolR1 ECD-AcTev-Fcknob-Avi …; assay: SPR, monovalent, antibody captured by anti-Fab
Description: (§7) Binding of FolR1 binders as IgG or in the T-cell bispecific format to different recombinant folate receptors (human FolR1, 2 and 3, murine FolR1 and cynomolgus FolR1; all as Fc fusions) was assessed by surface plasmon resonance (SPR).
(§8) For affinity measurement, direct coupling of around 6000-7000 resonance units (RU) of the anti-human Fab specific antibody (Fab capture kit, GE Healthcare) was performed on a CM5 chip at pH5.0 using the standard amine coupling kit (GE Healthcare). Anti-FolR1 IgGs or T cell bispecifics were captured at 20 nM with a flow rate of 10 μl/min for 20 or 40 sec, the reference flow cell was left without capture. […] The dissociation phase was monitored for 240 sand triggered by switching from the sample solution to HBS-EP. The chip surface was regenerated after every cycle using a double injection of 60 sec 10 mM Glycine-HCl pH 2.1 or pH1.5. Bulk refractive index differences were corrected for by subtracting the response obtained on the reference flow cell 1. The affinity constants for the interactions were derived from the rate constants by fitting to a 1:1 Langmuir binding using the Bia Evaluation software (GE Healthcare).

[27] = target: T13, human FolR1 ECD-AcTev-Fcknob-Avi tag + …; assay: SPR, monovalent, antibody captured by anti-Fab
Description: as §7, §8

[28] = target: T12, cynomolgus FolR1 ECD-AcTev-Fcknob-Avi …; assay: SPR, apparent KD, bivalent binding (avidity)
Description: as §7
(§9) Recombinant biotinylated monomeric Fc fusions of human, cynomolgus and murine Folate Receptor 1 (FolR1-Fc) were directly coupled on a SA chip using the standard coupling instruction (Biacore, Freiburg/Germany). The immobilization level was about 300-400 RU. The anti-FolR1 IgGs or T cell bispecifics were passed at a concentration range from 2.1 to 500 nM with a flow of 30 μL/minutes through the flow cells over 180 seconds. The dissociation was monitored for 600 seconds. Bulk refractive index differences were corrected for by subtracting the response obtained on reference flow cell immobilized with recombinant biotinylated IL2 receptor Fc fusion. […] The binding curves resulting from the bivalent binding of the IgGs or T cell bispecifics were approximated to a 1:1 Langmuir binding and fitted with that model (which is not correct, but gives an idea of the avidity). The apparent avidity constants for the interactions were derived from the rate constants of the fitting using the Bia Evaluation software (GE Healthcare).

[29] = target: T13, human FolR1 ECD-AcTev-Fcknob-Avi tag + …; assay: SPR, apparent KD, bivalent binding (avidity)
Description: as §7, §9

[30] = target: T12, cynomolgus FolR1 ECD-AcTev-Fcknob-Avi …; assay: SPR, bivalent binding (avidity), antigen on SA chip
Description: as §7, §9

[31] = target: T13, human FolR1 ECD-AcTev-Fcknob-Avi tag + …; assay: as above
Description: as §7, §9

T6 sequence (P14207 17-230 limits assumed): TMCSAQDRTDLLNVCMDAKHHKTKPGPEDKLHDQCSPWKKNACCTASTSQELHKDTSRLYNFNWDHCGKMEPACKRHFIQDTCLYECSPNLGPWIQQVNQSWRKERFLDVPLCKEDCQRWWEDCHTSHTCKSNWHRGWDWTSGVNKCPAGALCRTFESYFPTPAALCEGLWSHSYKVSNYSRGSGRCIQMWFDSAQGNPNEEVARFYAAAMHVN
T5 sequence (P15328 25-234 limits assumed): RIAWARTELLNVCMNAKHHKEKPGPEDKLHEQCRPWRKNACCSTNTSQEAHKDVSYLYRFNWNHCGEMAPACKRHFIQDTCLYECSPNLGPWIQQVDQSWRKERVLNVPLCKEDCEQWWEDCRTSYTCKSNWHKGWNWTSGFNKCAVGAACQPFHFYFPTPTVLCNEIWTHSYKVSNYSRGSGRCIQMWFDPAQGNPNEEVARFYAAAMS
T4 sequence (P15328 other isoform, or with tags, fused parts or gaps limits assumed): as the sequence (P15328 25-234 limits assumed) above, with I2T, W4R, R37K, Q117R, A146P, H171Y counted along it

B1: 9D11 IgG (antibody, V domains shown)
VH: QVQLVQSGAEVKKPGASVKVSCKASGYTFTSYYMHWVRQAPGQGLEWMGIINPSGGPTSYAQKFQGRVTMTRDTSTSTVYMELSSLRSEDTAVYYCARGDFAWLDYWGQGTLVTVSS
VL: not shown
notes: human IgG1
- binding result [1]: no binding (tested: 500 nM)
- binding result [2]: no binding (tested: 500 nM)
- binding result [3]: no binding (tested: 500 nM)
- binding result [4]: binds
- binding result (human FolR1 on cells [5]): binds
- binding result [6]: no binding

B2: Tim3_0026 (antibody, V domains shown)
VH: QIQLVQSGPELKKPGETVKISCKASGYTFTDYSMHWVKQAPGRGLKWMGYINTETYEPTFGADFKGRFAFSLDTSATTAYLQINSLKTEDTATFFCGGGGYPAYWGQGTVVIVSA
VL: DVLMTQTPLSLPVSLGDQASISCRSSRTILHSSGNTYLEWYLQKPGQSPKLLIYKVSNRFSGVPDRFSGSGSGTDFTLNISRVEAEDLGVYYCFQDSHVPFTFGTGTKLEIK
- EC50 (human TIM-3 on cells [7]): 0.069 µg/mL
- Kd (monomeric human Tim3-ECD [8]): 6.23 nM
- Kd [9]: 1.52 nM
- MFI [10]: 184 MFI
- Kd (monomeric human Tim3-ECD [11]): 6.2 nM
- MFI [12]: 137 MFI
- MFI [13]: 197 MFI
- EC50 (Tim3-ECD-His-Biotin): 0.047 µg/mL
- specific binding MFI (human TIM-3 on cells [14]): 1660 MFI
- specific binding MFI (human TIM-3 on cells [15]): 1020 MFI
- IC50 cytotoxicity (anti-mFc Fab-PE24 sandwich), RPMI-8226 (human TIM-3 on cells [16]): > 64 nM
- IFN-gamma release in MLR at 1 µg/ml, % of IL-2 control (human TIM-3 on cells [17]): 18%
- IFN-gamma release in MLR at 10 µg/ml, % of IL-2 control (human TIM-3 on cells [17]): 16%
- IFN-gamma release in MLR at 40 µg/ml, % of IL-2 control (human TIM-3 on cells [17]): 25%
- Kd [18]: 1.5 nM
- specific binding MFI (human TIM-3 on cells [19]): 900 MFI

B3: Tim3_0030 (antibody, V domains shown)
VH: QIQLVQSGPELKKPGETVKISCKASGYPFSEYSIHWVKQAPGKGLKWMVYVNTETGQPIVGDDFRGRFVLSLETSASTAYLQINNLKNEDTATYFCGGGGYPAYWGQGTLVTVSA
VL: DVLMTQTPLSLPVSLGDQASISCRSSRSIVHSSGNTYLEWYLQKPGQSPKLLIYKVSNRFSGVPDRFSGSGSGTDFTLNISRVEAEDLGVYYCFQDSHVPFTFGTGTKLEIK
- Kd (monomeric human Tim3-ECD [8]): 3.11 nM
- Kd [9]: 1.28 nM
- MFI [10]: 163 MFI
- MFI [12]: 119 MFI
- MFI [13]: 144 MFI
- specific binding MFI (human TIM-3 on cells [14]): 1410 MFI
- specific binding MFI (human TIM-3 on cells [15]): 419 MFI
- IC50 cytotoxicity (anti-mFc Fab-PE24 sandwich), RPMI-8226 (human TIM-3 on cells [16]): > 64 nM
- IFN-gamma release in MLR at 1 µg/ml, % of IL-2 control (human TIM-3 on cells [17]): 3%
- IFN-gamma release in MLR at 10 µg/ml, % of IL-2 control (human TIM-3 on cells [17]): 4%
- IFN-gamma release in MLR at 40 µg/ml, % of IL-2 control (human TIM-3 on cells [17]): 14%
- specific binding MFI (human TIM-3 on cells [19]): 466 MFI

B4: 19E5 IgG (antibody, V domains shown)
VH: QVQLVQSGAEVKKPGASVKVSCKASGYTFTSYYMHWVRQAPGQGLEWMGIINPSGGSTSYAQKFQGRVTMTRDTSTSTVYMELSSLRSEDTAVYYCARGEWRRYTSFDYWGQGTLVTVSS
VL: QAVVTQEPSLTVSPGGTVTLTCGSSTGAVTTSNYANWVQEKPGQAFRGLIGGTNKRAPGTPARFSGSLLGGKAALTLSGAQPEDEAEYYCALWYSNLWVFGGGTKLTVL
notes: human IgG1
- binding result [20]: binds
- EC50 (read off the curve) (human FolR1 on cells [21]): ~2 µg/mL

B5: 19A4 IgG (antibody, V domains shown)
VH: QVQLVQSGAEVKKPGASVKVSCKASGYTFTSYYMHWVRQAPGQGLEWMGIINPSGGSTSYAQKFQGRVTMTRDTSTSTVYMELSSLRSEDTAVYYCARGGWIRWEHFDYWGQGTLVTVSS
VL: QAVVTQEPSLTVSPGGTVTLTCGSSTGAVTTSNYANWVQEKPGQAFRGLIGGTNKRAPGTPARFSGSLLGGKAALTLSGAQPEDEAEYYCALWYSNLWVFGGGTKLTVL
notes: human IgG1
- binding result (human FolR1 on cells [22]): binds
- binding result [20]: binds

B6: 20G6 IgG (antibody, V domains shown)
VH: QVQLVQSGAEVKKPGASVKVSCKASGYTFTSYYMHWVRQAPGQGLEWMGIINPSGGSTSYAQKFQGRVTMTRDTSTSTVYMELSSLRSEDTAVYYCARGEWIRYYHFDYWGQGTLVTVSS
VL: QAVVTQEPSLTVSPGGTVTLTCGSSTGAVTTSNYANWVQEKPGQAFRGLIGGTNKRAPGTPARFSGSLLGGKAALTLSGAQPEDEAEYYCALWYSNLWVFGGGTKLTVL
notes: human IgG1
- binding result [1]: no binding (tested: 500 nM)
- binding result [2]: no binding (tested: 500 nM)
- binding result [23]: no binding (tested: 500 nM)
- binding result [24]: no binding (tested: 500 nM)
- binding result (human FolR1 on cells [25]): binds

B7: Mov19 IgG (antibody, V domains shown)
VH: QVQLQQSGAELVKPGASVKISCKASGYSFTGYFMNWVKQSHGKSLEWIGRIHPYDGDTFYNQNFKDKATLTVDKSSNTAHMELLSLTSEDFAVYYCTRYDGSRAMDYWGQGTTVTVSS
VL: DIELTQSPASLAVSLGQRAIISCKASQSVSFAGTSLMHWYHQKPGQQPKLLIYRASNLEAGVPTRFSGSGSKTDFTLNIHPVEEEDAATYYCQQSREYPYTFGGGTKLEIK
- Kd [26]: 0.65 nM
- koff [26]: 0.000193 s⁻¹
- kon [26]: 297000 M⁻¹ s⁻¹
- Kd [27]: 0.55 nM
- koff [27]: 0.000159 s⁻¹
- kon [27]: 289000 M⁻¹ s⁻¹
- Kd [28]: 0.108 nM
- Kd [29]: 0.14 nM
- koff [30]: 0.000139 s⁻¹
- kon [30]: 1.29e+06 M⁻¹ s⁻¹
- koff [31]: 0.000121 s⁻¹
- kon [31]: 861000 M⁻¹ s⁻¹
- EC50 (read off the curve) (human FolR1 on cells [21]): ~1 µg/mL
